# Experimental data reported in US8815811B2, “Peptides and methods for their preparation and use” (Eli Lilly and Company, priority 2010, dated 2014).
# Where no end group is shown, it is not given here. [ ]: non-standard residue; d: D form. 1Nal = N[C@@H](Cc1cccc2ccccc12)C(=O)O; Aib = CC(C)(N)C(=O)O
# Molecular target: T1, hGlucR (Homo sapiens, UniProt P47871)
# T1 construct: expressed in transfected cells; host or cells: 293HEK, Hygromycin-selected, phD expression plasmid
# Assay: Glucagon receptor (hGlucR) binding assay (SPA, I-125 glucagon)
# Conditions: hGlucR 293HEK membranes
# Procedure: The hGlucR cDNA is subcloned into the expression plasmid phD (Trans-activated expression of fully gamma-carboxylated recombinant human protein C, an antithrombotic factor. Grinnell, B. W., et. al., Bio/Technology 5: 1189-1192 (1987)). This plasmid DNA is transfected into 293HEK cells and selected with 200 μg/mL Hygromycin.
# Crude plasma membranes are prepared using cells from suspension culture. The cells are lysed on ice in hypotonic buffer containing 25 mM Tris HCl, pH 7.5, 1 mM MgCl2, DNAse1, 20 μ/mL, and Roche Complete™ Inhibitors without EDTA. The cell suspension is homogenized with a glass dounce homogenizer using a Teflon® pestle for 25 strokes. The homogenate is centrifuged at 4° C. at 1800×g for 15 minutes. The supernatant is collected and the pellet is resuspended in hypotonic buffer and rehomogenized. The mixture is centrifuged at 1800×g for 15 minutes. The second supernatant is combined with the first supernatant. […]
# The binding buffer contains 25 mM 4-(2-hydroxyethyl)-1-piperazineethanesulfonic acid (HEPES), pH 7.4, 2.5 mM CaCl2, 1 mM MgCl2, 0.1% fatty acid free BSA, 0.003% Tween20, and Roche Complete™ Inhibitors without EDTA. […] Plates are read with a PerkinElmer Life and Analytical Sciences Trilux MicroBeta® scintillation counter after 12 hours of settling time at room temperature.
# Results are calculated as a percent of specific I-125-glucagon binding in the presence of compound. […]
# T1 sequence (P47871 26-477): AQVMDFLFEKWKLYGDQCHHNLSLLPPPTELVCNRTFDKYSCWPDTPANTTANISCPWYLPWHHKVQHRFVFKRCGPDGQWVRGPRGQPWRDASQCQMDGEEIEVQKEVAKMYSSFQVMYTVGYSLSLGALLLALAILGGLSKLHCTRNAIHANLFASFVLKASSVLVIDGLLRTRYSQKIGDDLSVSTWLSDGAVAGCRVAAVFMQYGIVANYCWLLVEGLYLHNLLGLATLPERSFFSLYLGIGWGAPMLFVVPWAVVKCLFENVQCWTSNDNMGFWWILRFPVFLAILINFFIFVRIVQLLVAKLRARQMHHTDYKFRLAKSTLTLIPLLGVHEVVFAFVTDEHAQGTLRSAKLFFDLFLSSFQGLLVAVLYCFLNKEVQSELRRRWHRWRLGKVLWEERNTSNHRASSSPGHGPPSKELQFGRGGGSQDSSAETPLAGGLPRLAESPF
substance,measurement,value
"Aib^2, Aib^13, Nal^22, Aib^29, Cys^43(PEG20K), Cys^44 (PEG20K)-GIP (Y[Aib]EGTFTSDYSI[Aib]LDKIAQRA[1Nal]VQWLIA[Aib]KGKKQEWKHQITQC(PEG 20 kDa)C(PEG 20 kDa)-NH2) [Example 4]",Ki,> 7.49 µM
